Results as given in doi:10.1101/2023.02.07.527516.

Experiments:
Experiment in all cases: native gel or EMSA
[1] = target: GluA1 lacking the extracellular domains (GluA1-ΔECD) (rat)
[2] = target: GluA1 AMPA receptor subunit, wild type (rat, flip) (rat)
[3] = target: GluA1(G816A)-TARP γ-2 tandem (rat)
[4] = target: GluA1-TARP γ-2 tandem (rat)
[5] = target: GluA2(R), edited form of the GluA2 AMPA receptor subunit (rat, flip) (rat)
[6] = target: GluA1(G816A) (rat)

Sequence of GluA2(R), edited form of the GluA2 AMPA receptor subunit (rat, flip) (P19491 22-883): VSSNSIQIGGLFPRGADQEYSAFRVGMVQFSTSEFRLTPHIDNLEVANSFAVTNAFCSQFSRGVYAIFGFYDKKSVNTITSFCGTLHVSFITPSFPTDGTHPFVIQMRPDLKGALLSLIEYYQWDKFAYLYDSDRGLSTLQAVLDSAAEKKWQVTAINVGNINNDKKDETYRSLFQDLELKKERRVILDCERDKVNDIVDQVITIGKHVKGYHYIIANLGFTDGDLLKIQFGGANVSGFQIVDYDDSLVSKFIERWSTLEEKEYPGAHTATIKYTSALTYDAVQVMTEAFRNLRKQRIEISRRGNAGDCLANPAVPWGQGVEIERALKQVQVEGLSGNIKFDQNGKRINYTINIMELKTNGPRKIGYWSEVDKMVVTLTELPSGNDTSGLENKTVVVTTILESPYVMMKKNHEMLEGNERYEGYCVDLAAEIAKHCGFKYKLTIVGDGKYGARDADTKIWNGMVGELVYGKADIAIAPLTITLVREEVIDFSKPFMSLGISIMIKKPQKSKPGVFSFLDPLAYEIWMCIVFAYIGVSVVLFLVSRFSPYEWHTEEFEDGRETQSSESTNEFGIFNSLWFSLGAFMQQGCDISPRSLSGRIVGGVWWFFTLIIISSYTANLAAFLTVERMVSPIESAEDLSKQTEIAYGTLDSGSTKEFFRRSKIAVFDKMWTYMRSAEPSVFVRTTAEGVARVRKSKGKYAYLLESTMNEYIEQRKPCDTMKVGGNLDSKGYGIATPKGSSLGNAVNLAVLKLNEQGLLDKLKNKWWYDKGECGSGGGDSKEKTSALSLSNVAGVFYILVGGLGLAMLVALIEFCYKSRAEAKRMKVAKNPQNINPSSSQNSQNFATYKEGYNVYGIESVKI

A stoichiometry N [1] of 4 was found for “GluA1 lacking the extracellular domains (GluA1-ΔECD) (domain or fragment)” in this work.
A stoichiometry N [2] of 4 was found for “GluA1 AMPA receptor subunit, wild type (rat, flip)” in this work.
A stoichiometry N [3] of 4 was found for GluA1(G816A)-TARP γ-2 tandem in this work.
A stoichiometry N [4] of 4 was found for GluA1-TARP γ-2 tandem in this work.
A stoichiometry N [5] of 4 was found for “GluA2(R), edited form of the GluA2 AMPA receptor subunit (rat, flip)” in this work.
A tetramer formation [6] of 50% was found for GluA1(G816A) (receptor) in this work.
